Results on 14 molecules are retold here after paper PMC12394722, “Regulatory role of the N-terminal intrinsically disordered region of the DEAD-box RNA helicase DDX3X in selective RNA recognition”.

The target in series [1] is T1, RR-3 fragment (human, UniProt O00571 106-127).
T1 chain: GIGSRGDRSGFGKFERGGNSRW
Put plainly: NMR; little to no change; EMSA: 20 mM K-phosphate pH 7.0, 125 mM KCl, 1 mM DTT, 0.005% Tween-20, 10% glycerol (1 mM ATP-Mg for MBP-FL/Core-C), gel at room temperature; ITC: 20 mM K-phosphate pH 7.0, 50 mM KCl, 25 C; NMR: 200 mM KCl (also 120 mM), 10 C, 50 uM. The conditions noted are these: protein: recombinant, tags: His6-SUMO tag cleaved.

For series [2], the target named is T2, RR-1 fragment (human, UniProt O00571 31-61). The description is as above. The conditions noted are these: protein: recombinant, tags: His6-SUMO tag cleaved.
T2 sequence (O00571 31-61): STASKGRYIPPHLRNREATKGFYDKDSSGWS
Series [3] deals with T3, RR-2 fragment (human, UniProt O00571 73-102). The description is as above. The conditions noted are these: protein: recombinant, tags: His6-SUMO tag cleaved.
T3 sequence (O00571 73-102): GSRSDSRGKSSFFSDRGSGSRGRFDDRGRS
In series [4] the target is T4, MBP-FL DDX3X (human, UniProt O00571 1-662). Put plainly: EMSA; little to no shift; 1 mM ATP-Mg; EMSA: 20 mM K-phosphate pH 7.0, 125 mM KCl, 1 mM DTT, 0.005% Tween-20, 10% glycerol (1 mM ATP-Mg for MBP-FL/Core-C), gel at room temperature; ITC: 20 mM K-phosphate pH 7.0, 50 mM KCl, 25 C; NMR: 200 mM KCl (also 120 mM), 10 C, 50 uM. The following applies: protein: recombinant, tags: N-terminal His6-MBP.
T4 sequence (O00571 whole entry): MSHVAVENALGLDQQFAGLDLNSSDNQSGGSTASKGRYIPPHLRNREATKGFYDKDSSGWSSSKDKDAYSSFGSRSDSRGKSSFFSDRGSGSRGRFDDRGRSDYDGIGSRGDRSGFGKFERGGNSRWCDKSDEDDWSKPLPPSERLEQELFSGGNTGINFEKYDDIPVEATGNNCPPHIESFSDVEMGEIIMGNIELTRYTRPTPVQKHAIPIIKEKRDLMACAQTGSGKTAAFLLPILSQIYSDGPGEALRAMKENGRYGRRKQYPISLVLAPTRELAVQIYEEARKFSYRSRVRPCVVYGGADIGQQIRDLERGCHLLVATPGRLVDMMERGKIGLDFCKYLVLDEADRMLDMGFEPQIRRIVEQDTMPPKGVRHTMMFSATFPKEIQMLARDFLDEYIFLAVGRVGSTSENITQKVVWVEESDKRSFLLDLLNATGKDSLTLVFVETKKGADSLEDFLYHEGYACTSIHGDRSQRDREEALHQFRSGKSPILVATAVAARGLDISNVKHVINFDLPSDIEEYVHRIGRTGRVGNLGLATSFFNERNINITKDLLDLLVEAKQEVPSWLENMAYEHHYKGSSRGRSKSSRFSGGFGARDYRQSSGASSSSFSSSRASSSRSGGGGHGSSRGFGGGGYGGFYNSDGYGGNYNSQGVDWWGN

Series [5] addresses T5, DDX3X N-IDR (human, UniProt O00571 1-132). The experiment in a line: EMSA; little to no shift; 125 mM KCl; EMSA: 20 mM K-phosphate pH 7.0, 125 mM KCl, 1 mM DTT, 0.005% Tween-20, 10% glycerol (1 mM ATP-Mg for MBP-FL/Core-C), gel at room temperature; ITC: 20 mM K-phosphate pH 7.0, 50 mM KCl, 25 C; NMR: 200 mM KCl (also 120 mM), 10 C, 50 uM. The following applies: protein: recombinant; tags: His6-SUMO tag cleaved (Ulp1); label: 3'-FAM.

The target of series [6] is T1, RR-3 fragment. Put plainly: NMR; EMSA: 20 mM K-phosphate pH 7.0, 125 mM KCl, 1 mM DTT, 0.005% Tween-20, 10% glycerol (1 mM ATP-Mg for MBP-FL/Core-C), gel at room temperature; ITC: 20 mM K-phosphate pH 7.0, 50 mM KCl, 25 C; NMR: 200 mM KCl (also 120 mM), 10 C, 50 uM. The following applies: protein: recombinant; tags: His6-SUMO tag cleaved; parallel G4, dimer of 2 strands.

Series [7] deals with T2, RR-1 fragment. The description is as above. The following applies: protein: recombinant, tags: His6-SUMO tag cleaved.
Series [8] has as its target T3, RR-2 fragment. The description is as above. The following applies: protein: recombinant, tags: His6-SUMO tag cleaved.
The target of series [9] is T5, DDX3X N-IDR. The experiment in a line: ITC; 50 mM KCl; dimer concentration; EMSA: 20 mM K-phosphate pH 7.0, 125 mM KCl, 1 mM DTT, 0.005% Tween-20, 10% glycerol (1 mM ATP-Mg for MBP-FL/Core-C), gel at room temperature; ITC: 20 mM K-phosphate pH 7.0, 50 mM KCl, 25 C; NMR: 200 mM KCl (also 120 mM), 10 C, 50 uM. The conditions noted are these: protein: recombinant; tags: His6-SUMO tag cleaved (Ulp1); parallel G4, dimer of 2 strands.

Series [10] deals with T5, DDX3X N-IDR. Put plainly: NMR; EMSA: 20 mM K-phosphate pH 7.0, 125 mM KCl, 1 mM DTT, 0.005% Tween-20, 10% glycerol (1 mM ATP-Mg for MBP-FL/Core-C), gel at room temperature; ITC: 20 mM K-phosphate pH 7.0, 50 mM KCl, 25 C; NMR: 200 mM KCl (also 120 mM), 10 C, 50 uM. The conditions noted are these: protein: recombinant, tags: His6-SUMO tag cleaved (Ulp1).
Series [11] deals with T4, MBP-FL DDX3X. The experiment in a line: EMSA; 1 mM ATP-Mg; EMSA: 20 mM K-phosphate pH 7.0, 125 mM KCl, 1 mM DTT, 0.005% Tween-20, 10% glycerol (1 mM ATP-Mg for MBP-FL/Core-C), gel at room temperature; ITC: 20 mM K-phosphate pH 7.0, 50 mM KCl, 25 C; NMR: 200 mM KCl (also 120 mM), 10 C, 50 uM. The following applies: protein: recombinant, tags: N-terminal His6-MBP, label: 5'-FAM.

For the next series, the target named is MBP-Core-C DDX3X (human, UniProt O00571 132-662). The series is described as above. The following applies: protein: recombinant, tags: N-terminal His6-MBP, label: 5'-FAM.
Chain of MBP-Core-C DDX3X (O00571 132-662): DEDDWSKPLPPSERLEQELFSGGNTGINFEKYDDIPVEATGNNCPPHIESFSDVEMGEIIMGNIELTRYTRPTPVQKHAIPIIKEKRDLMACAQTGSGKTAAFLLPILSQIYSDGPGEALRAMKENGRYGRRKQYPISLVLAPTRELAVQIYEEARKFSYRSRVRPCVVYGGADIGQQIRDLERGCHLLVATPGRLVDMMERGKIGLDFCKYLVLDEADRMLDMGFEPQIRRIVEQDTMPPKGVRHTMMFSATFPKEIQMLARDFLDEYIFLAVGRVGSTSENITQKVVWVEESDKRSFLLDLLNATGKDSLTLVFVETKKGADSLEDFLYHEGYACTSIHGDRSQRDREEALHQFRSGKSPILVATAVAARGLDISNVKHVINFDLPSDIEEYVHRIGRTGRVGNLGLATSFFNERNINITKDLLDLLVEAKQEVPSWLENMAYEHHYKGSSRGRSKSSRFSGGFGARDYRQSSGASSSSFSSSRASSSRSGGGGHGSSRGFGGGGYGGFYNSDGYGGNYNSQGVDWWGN
For series [12], the target named is T5, DDX3X N-IDR. The experiment in a line: EMSA; 125 mM KCl; EMSA: 20 mM K-phosphate pH 7.0, 125 mM KCl, 1 mM DTT, 0.005% Tween-20, 10% glycerol (1 mM ATP-Mg for MBP-FL/Core-C), gel at room temperature; ITC: 20 mM K-phosphate pH 7.0, 50 mM KCl, 25 C; NMR: 200 mM KCl (also 120 mM), 10 C, 50 uM. The conditions noted are these: protein: recombinant, tags: His6-SUMO tag cleaved (Ulp1).

Series [13] has as its target T1, RR-3 fragment. Put plainly: NMR; smaller reduction than telomeric GQ; EMSA: 20 mM K-phosphate pH 7.0, 125 mM KCl, 1 mM DTT, 0.005% Tween-20, 10% glycerol (1 mM ATP-Mg for MBP-FL/Core-C), gel at room temperature; ITC: 20 mM K-phosphate pH 7.0, 50 mM KCl, 25 C; NMR: 200 mM KCl (also 120 mM), 10 C, 50 uM. The conditions noted are these: protein: recombinant; tags: His6-SUMO tag cleaved; G4 monomer.

For series [14], the target named is T5, DDX3X N-IDR. Put plainly: ITC; 50 mM KCl; EMSA: 20 mM K-phosphate pH 7.0, 125 mM KCl, 1 mM DTT, 0.005% Tween-20, 10% glycerol (1 mM ATP-Mg for MBP-FL/Core-C), gel at room temperature; ITC: 20 mM K-phosphate pH 7.0, 50 mM KCl, 25 C; NMR: 200 mM KCl (also 120 mM), 10 C, 50 uM. The following applies: protein: recombinant; tags: His6-SUMO tag cleaved (Ulp1); G4 monomer.

Where [15] appears, read: parallel G4, dimer of 2 strands.

T5 sequence (O00571 1-132): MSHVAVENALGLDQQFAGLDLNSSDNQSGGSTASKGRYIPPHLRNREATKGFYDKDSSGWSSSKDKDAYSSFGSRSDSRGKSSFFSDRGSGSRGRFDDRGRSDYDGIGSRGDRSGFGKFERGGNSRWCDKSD

B1: GC-14mer dsRNA (NMR) (dsRNA)
RNA 1: GGGCGGGCCCGCCC
RNA 2: GGGCGGGCCCGCCC
For B1, the binding result with RR-3 fragment [1] (blunt, self-complementary) is listed as “no binding”; in the series with RR-1 fragment [2] (blunt, self-complementary), “no binding”; with RR-2 fragment [3] (blunt, self-complementary) it was “no binding”.

B2: poly-U12 (ssRNA)
RNA: UUUUUUUUUUUU
Consider B2, for which the binding result with MBP-FL DDX3X [4] (label: 3'-FAM) and in the series with DDX3X N-IDR [5] was “no binding” throughout.

B3: telomeric GQ RNA (structured_RNA)
RNA: UAGGGUUAGGGU
Consider B3, for which the binding result in the series with RR-3 fragment [6], with RR-1 fragment [7] (setting [15]) and in the series with RR-2 fragment [8] (setting [15]) was “binds” in each case. Also, the Kd in the series with DDX3X N-IDR [9] is 3400 nM.

B4: MITF 62-86 (structured_RNA)
RNA: GAAAGUAGAGGGAGGGAUAGUCUAC
For B4, the binding result with DDX3X N-IDR [10] (G4) is “binds”.

B5: NRAS mutant RNA (ssRNA)
RNA: UGUAGAAAGAGCAGAUCUAGAUGC
Regarding B5, the binding result with RR-3 fragment [1] (GQ abolished), with RR-1 fragment [2] (GQ abolished) and with RR-2 fragment [3] (GQ abolished) was “no binding” throughout.

B6: FAM-NRAS GQ RNA (structured_RNA)
RNA: UGUGGGAGGGGCGGGUCUGGGUGC
Regarding B6, the Kd in the series with MBP-FL DDX3X [11] (G4 monomer) is 43 ± 4 nM; with MBP-Core-C DDX3X (G4 monomer), 201 ± 5 nM; in the series with DDX3X N-IDR [12] (label: 5'-FAM, G4 monomer) it was 54 ± 12 nM.

B7: poly-U10 (ssRNA)
RNA: UUUUUUUUUU
In the case of B7, the binding result in the series with RR-3 fragment [1], with RR-1 fragment [2] and with RR-2 fragment [3] was “no binding” in each case.

B8: ODC1 150-174 (structured_RNA)
RNA: AGUAGGGAGCGGCGUGCCGUGGGGC
Take B8: the Kd with DDX3X N-IDR [12] (label: 5'-FAM in EMSA, G4, heterogeneous) came to 1970 ± 230 nM.

B9: FAM-telomeric GQ RNA (structured_RNA)
RNA: UAGGGUUAGGGU
Turning to B9, the equilibrium dissociation constant (Kd) turned out to be 54 ± 14 nM with MBP-FL DDX3X [11] (setting [15]); 579 ± 69 nM in the series with MBP-Core-C DDX3X (setting [15]); 1000 ± 200 nM with DDX3X N-IDR [12] (label: 5'-FAM, parallel G4, dimer of 2 strands).

B10: FAM-NRAS mutant RNA (ssRNA)
RNA: UGUAGAAAGAGCAGAUCUAGAUGC
For B10, the Kd came to 222 ± 9 nM with MBP-FL DDX3X [11] (GQ abolished) and 6000 ± 800 nM in the series with DDX3X N-IDR [12] (label: 5'-FAM, GQ abolished).

B11: RAC1 53-77 (structured_RNA)
RNA: GCGGAGGGCGAGGCGGCGUGGACAG
As for B11, the Kd with DDX3X N-IDR [12] (label: 5'-FAM in EMSA, G4) came out at 510 ± 80 nM.

B12: NRAS GQ RNA (structured_RNA)
RNA: UGUGGGAGGGGCGGGUCUGGGUGC
As to B12, the binding result with RR-3 fragment [13], with RR-1 fragment [7] (G4 monomer) and with RR-2 fragment [8] (G4 monomer) was “binds” in each case. Also, the Kd in the series with DDX3X N-IDR [14] came out at 1400 nM.

B13: MITF 7-31 (ssRNA)
RNA: AUACCUUGUUUAUAGUACCUUCUCU
Turning to B13, the binding result in the series with DDX3X N-IDR [10] (non-GQ) is reported as “no binding”.

B14: FAM-14mer tetraloop (structured_RNA)
RNA: GGCACUUCGGUGCC
B14: in the series with MBP-FL DDX3X [4] (label: 5'-FAM, hairpin), the binding result is given as “no binding”.
